Data as given in article PMC5481773, “Structural insights into the function of ZRANB3 in replication stress response” (Nature Communications, 2017).

Key:
[1] = NADH-coupled ATPase assay of ZRANB3 proteins; type: biochemical; settings: 150 nM ZRANB3, 5 mM ATP, 0.5 μM flap DNA, 24 °C, average rates
Procedure: The NADH-coupled ATPase assay is based on a reaction in which the regeneration of hydrolysed ATP is coupled to the oxidation of NADH[59]. It was used as described, with minor modifications. ZRANB3 (150 nM) was added to a 150 μl reaction containing 25 mM Tris-Cl pH 7.5, 13 mM MgCl2, 1.8 mM DTT, 100 μg ml^−1 BSA, 3 mM phosphoenolpyruvate, 36 U ml^−1 pyruvate kinase, 20 U ml^−1 lactate dehydrogenase, 0.5 μM flap DNA, and 5 mM ATP, with 750 μM NADH added immediately before ZRANB3. Reactions were mixed for 1 min on a shaker at 23 °C and analysed by measuring A340 nm at 20 s intervals during 60 min, on a Spectramax 250 microplate spectrophotometer at 24 °C. Linear titration of freshly prepared NADH was performed to obtain a standard curve for units of absorbance mM^−1 NADH. ATPase rates were calculated from data collected between time points where product formation was linear with respect to time.

U2OS cells = experiment: Colocalization of YFP-ZRANB3 foci with endogenous PCNA; type: cell-based; settings: average of three experiments
Description: Figure 5 PCNA-dependent recruitment of ZRANB3. (a) Recruitment of FEN1 to the sites of laser induced DNA damage is abrogated by the mutations in the PIP box (Q337A, F343A and F344A). U2OS cells were transiently transfected with the indicated YFP constructs and analysed by live-cell imaging. Shown are representative images at the indicated time points post damage. (b) Recruitment of the YFP-tagged PIP box and APIM motif to the sites of laser induced DNA damage. Recruitment is abrogated by the mutations of the conserved residues in the PIP box and the APIM motif. […] The percentage of cells containing ZRANB3 foci that colocalize with PCNA was determined. […]
U2OS cells (ATCC) were seeded onto glass coverslips and transfected with the YFP constructs using Lipofectamine 2000 (Life Technologies). […] The coverslips were mounted in ProLong Gold anti-fade reagent with DAPI (Life Technologies) and analysed by confocal microscopy.
For the recruitment of ZRANB3 to stalled replication forks, U2OS cells were seeded onto glass coverslips and transfected with YFP-ZRANB3 constructs. […] Finally, the samples were analysed by confocal microscopy. For each experiment, more than 100 cells were counted, and the results from three independent transfections were pooled for statistical analyses.

ATP hydrolysis rate ([1]; A340 nm): 16.59 ± 0.34 µmol/L/min
k [1]: 110.65 ± 2.27 min⁻¹
B1: WT ZRANB3: full-length human ZRANB3, recombinant; YFP-tagged in the cell assay (protein)
chain: MPRVHNIKKSLTPHISCVTNESDNLLDFLPDRLRAKLLPFQKDGIIFALKRNGRCMVADEMGLGKTIQAIGITYFYKEEWPLLIVVPSSLRYPWTEEIEKWIPELSPEEINVIQNKTDVRRMSTSKVTVLGYGLLTADAKTLIDALNNQNFKVVIVDESHYMKSRNATRSRILLPIVQKARRAILLTGTPALGRPEELFMQIEALFPQKFGRWTDYAKRYCNAHIRYFGKRPQWDCRGASNLNELHQLLSDIMIRRLKTEVLTQLPPKVRQRIPFDLPSAAAKELNTSFEEWEKIMRTPNSGAMETVMGLITRMFKQTAIAKAGAVKDYIKMMLQNDSLKFLVFAHHLSMLQACTEAVIENKTRYIRIDGSVSSSERIHLVNQFQKDPDTRVAILSIQAAGQGLTFTAASHVVFAELYWDPGHIKQAEDRAHRIGQCSSVNIHYLIANGTLDTLMWGMLNRKAQVTGSTLNGRKEKIQAEEGDKEKWDFLQFAEAWTPNDSSEELRKEALFTHFEKEKQHDIRSFFVPQPKKRQLMTSCDESKRFREENTVVSSDPTKTAARDIIDYESDVEPETKRLKLAASEDHCSPSEETPSQSKQIRTPLVESVQEAKAQLTTPAFPVEGWQCSLCTYINNSELPYCEMCETPQGSAVMQIDSLNHIQDKNEKDDSQKDTSKKVQTISDCEKQALAQSEPGQLADSKEETPKIEKEDGLTSQPGNEQWKSSDTLPVYDTLMFCASRNTDRIHIYTKDGKQMSCNFIPLDIKLDLWEDLPASFQLKQYRSLILRFVREWSSLTAMKQRIIRKSGQLFCSPILALEEITKQQTKQNCTKRYITKEDVAVASMDKVKNVGGHVRLITKESRPRDPFTKKLLEDGACVPFLNPYTVQADLTVKPSTSKGYLQAVDNEGNPLCLRCQQPTCQTKQACKANSWDSRFCSLKCQEEFWIRSNNSYLRAKVFETEHGVCQLCNVNAQELFLRLRDAPKSQRKNLLYATWTSKLPLEQLNEMIRNPGEGHFWQVDHIKPVYGGGGQCSLDNLQTLCTVCHKERTARQAKERSQVRRQSLASKHGSDITRFLVKK
modifications: left off: His6, N-terminal, cleaved
notes: full-length human ZRANB3, recombinant; YFP-tagged in the cell assay
cells that formed ZRANB3 foci (colocalizing with PCNA) (U2OS cells; U2OS cells transfected with YFP-ZRANB3, UV 40 J m^−2, 6 h recovery): > 95%
cells that formed ZRANB3 foci (colocalizing with PCNA) (U2OS cells; U2OS cells transfected with YFP-ZRANB3, undamaged conditions): ~20%
